From patent US10975360B2, “Process for the modification of alkanes, fatty acids and fatty alcohols” (priority 2016, dated 2021)

B1: CYP505Om: CYP505 cytochrome P450 monooxygenase from Oidiodendron maius, SEQ ID No 11 (protein, listed as Oidiodendron maius)
chain: MTKKNHALIPIPGPSVWPLLGNLFDIDTEHGLASVLEMGRSYGDIFQLVLGGNKLVFLQTHALFDEVCDESRFCKVVVSGLGNLRAGVNDGLFTAHDGEHNWGVAHRIIMPIFGPIKIRETLGGMKDVCQELSLKWARYGPDHRIDIAGDLTRLTLDTIAFCTMGYRFNSFYRNSDVHPFVKSMVGFLREADKSSMIPEYLNAFRWKARRSFLGDIASMREMSMMILNLRRGNPSDRDDLLNALLHGRDPKTGEGMSDESIINNLITFLVAGHETTSGALSFVFYYLLTNPESLKNAREEVDRVIGAGNITADHLSKLPYIDAVLREALRLNPTGPAITLGAREDTTLGGKYAVKKGEPVLCMFHNIHRDKKVYGEDADEWKPERMMDENFNKLPKNAWKPFGNGTRGCIGRAFAWQESQLVIASILQNFDLTLDNPDYKLEIVETLTIKPGNFYVRAKLRSGRTPRELCGFSNPISTNIQIKNGTIAPANDGQVGNSTPVTILYGSNSGTCEALAHRLARDAPSYGYSVTTVATLDSVIGILPRAKDELVVIITCSYDGLPADNAVRFCNWLKTLDEDALGGMPFAVFACGHHDWAKTFYKVPIMIDELLARAGAHRVAQMGKANSAVSDMFSDLENWEDEHLWSSSSAAGNETVDNVARTEVKQDITITNPRARALHHNAVECIVSETHKLSESGSALKYHVEIQLPANMKYAPGDHLSVLPINPRQNVRRALARFHLAGDSVLSVARIGHMGTLGQETLSAFDVFASYVELSQPATRRNIATLLSVTPEGEGRYELAELGGAAFESQIRDMRVSVLDLLERYKAIKLCVGAFIDMLPPLRVRTYSISSSALWKPSHASLTISVLAQPALSGQGSFLGVASNFLADLVPGDAVHFTIRPCKKQFHLPDDASAHPIIMVAAGSGIAPFRGFIQDRALQRRNGVQLQPAILFFGCRGSKQDDLYRQELDEFEAEGVVSVRRAFSGEETVSISESRMYVQDRMWADRAEVIQLWNLGAKIYVCGGINMADGVREIFNEIVGPTEVDGKRGAESLNKLSEETMSARYVAEIFSQT
B2: CYP505Hv: CYP505 cytochrome P450 monooxygenase from Hypocrea virens, SEQ ID No 10 (protein, listed as Hypocrea virens)
chain: MKPAKNPNLVEIPKPKGLPVIGSLHHIDLESPLFSLIELIQPLGPICQLTFGSELNIFVSSIELLNELCDESRFQKIVTAELEKLRHVVHDGLFTARNEERNWEIAHRILMPVFGTIKIREMFPEMKDLAQQLCLKWARYGEEYVIDVTADFTRLTLDTLALCTMGFRFNSFHNGTVLHPFVDSMVRTLKEASVQAALPNFINSLRKKSWRRYEKDTAFMRKLCQDIIDKRKSQTDTDSHDLLAALLRGRDPKTGEGLSDDSIIDNMLTFLIAGHETTSGLLSFAMYYLLANPQTMEKARQEVDEVSQGSPIAVEHLSKLPYLNAVLKETLRLQPTAPGFILSSPKDEIIGGKYLIPANIPIGVLLHMVHLDKAVYGEDAAEFKPERMLDENFNKLPPNSWKPFGNGMRGCIGRAFATQEALLIVAMLLQSFTFEMADPGYKLKIKETLTVKPDNFRMKAKLRRGGTATDFQRELQSLGSVGAKLSSTPSVTSAQTGGGDKKPLTILYGSNSGTCEALAYRLASDATLHGFYARKIAPLNAARNSLPKSEPVIILAASYDGLPSDNAEEFFDWLNTAEKDSLKGVSYSVFGCGHRDWVATFQRVPILIDDLLQRAGAERFANRGLADSAVMDLFVELEKWTTDSVWPAISQTDGKQDNDGEGKLISSLLKVEFSQPRQLQQYSHLVEATVMESRSLTTPSAIGKKMHVDIQLPSGVSYHPGDHLLVLPVNPIRNVKRVLSRFHLTWDTIVRASGNESVRIPIETAMTVHELLSSYFELAQPATPRDIRVLAAAAEDEATKQVLNNLATTSYLEDIQEKKTSLLDLLEKFPEISIAFGTYLTLLPSLRLRTYSISSSPSWNSSRATLTLSVLDEPATTPGSKRYLGVASNHLAGLTPGDLIHVATRPVKGIFQMPADLSKAPTIMIAAGAGLAPFRGFIQERAYQQQNGVQLAPAALFFGCRSSHDDLYRSELDAFESSGVIRVFRAYSREDVGSKSNTRKGYVQDSLQAEKDVFVQLWNAGAKVYVCGSVKMASQVKDLVANLVYTAEPMDAQKEFTPQEWFKRFEKTRYAAEIFT
B3: CYP505St: CYP505 cytochrome P450 monooxygenase from Setosphaeria turcica, Seq ID 12 in Table 2 (protein, listed as Setosphaeria turcica)
chain: MSAPNRQLVPIPGPSALPIVGNTFDLDLDASIQSLVNMFEEYGPVFQLTIAGHKQIFVGNVQLTNEVCDESRFCKIVFSGLELLRSAVHDGLFTAHEGERNWDIAHRILMPVFGPTKIRGMFDQMNDIAQQLCLKWGRYGPTFPIEVTEDFTRLTLDTIALCAMGYRFNSFYRDNMHPFVDRMNRFLKDTNTQSGLPDLFNSLWLHAKKRNKEDIKAMREFSQEVVDQRRQNPVDADDLLNALLHQTDPKTGEGLSDSSIIDNMITFLVAGHETTSGLLSFAFYYMLKNPWAMEKAQQEVDNVIGTERVTVNHLSKLEYLNAILRETLRLMPTAPAFTVGALKDDVIGGKYAVKKGEPINPILQAVHCDKEVYGPDATEWKPERMLEEGFHKLPANSWKPFGNGKRGCIGRAFAWQEALLVVAVLLQSFTFTEDDPSYQLRIREALTIKPDGFKIRATLREHKTTAGMVPESVQSLRQAQKSGKPGNSKSSANESMVGQGNGRSVSIFYGSNSGSCESLANLLASDCAKYGFSVQTTDALDAARENFTSNQIVLIVASTYDGKPADNATEFVNWLKSLTGEPLKGVSYAVFGCGHHDWATTFYKIPILIDELLEQRGAQRVAPRGAANAAVSDLFSDLEKWEESILWPALGLTPALLESQGDTQPRLTISFQRPYTQRKEFLEATVTSASELTTSASPSRKCHMELQLPQDMTYNTGDYLAVLPLNPLSNVQRALSRFHLAWDSVLVIEATGPTQLPTATPISVADLFGAYVELSQPATPRNIRALAGAASDEPTKQALLKLAEDDFATQVRDKRLSVLDLLGQYESVALPVEAFIEMLLPLRPRTYSISSAPQWNPSHASITWSIIDTVSWSGHGRFLGVASNHLYDLSPGAVVRVSVRRSNPAFHPPQDPNSYPIIMIASGSGLAPFRGFIQERALQQKAGMTLAPALLFFGCRGRDDDLHRAEMDDFEKSGVVRVMRAYSKAPNEPDAFGCAYIQERVWSERKEFRELWNRGATVFVCGGTKMSEAIKDVFIKIAYGNAGQDDNKSSRDWFASLDPHRYVAEVFN
B4: CYP505Ao: CYP505 cytochrome P450 monooxygenase from Aspergillus oryzae, SEQ ID No 9 (protein, listed as Aspergillus oryzae)
chain: MRQNDNEKQICPIPGPQGLPFLGNILDIDLDNGTMSTLKIAKTYYPIFKFTFAGETSIVINSVALLSELCDETRFHKHVSFGLELLRSGTHDGLFTAYDHEKNWGLAHRLLVPAFGPLRIREMFPQMHDIAQQLCLKWQRYGPRRPLNLVDDFTRTTLDTIALCAMGYRFNSFYSEGDFHPFIKSMVRFLKEAETQATLPSFISNLRVRAKRRTQLDIDLMRTVCREIVTERRQTNLDHKNDLLDTMLTSRDSLSGDALSDESIIDNILTFLVAGHETTSGLLSFAVYYLLTTPDAMAKAAHEVDDVVGDQELTIEHLSMLKYLNAILRETLRLMPTAPGFSVTPYKPEIIGGKYEVKPGDSLDVFLAAVHRDPAVYGSDADEFRPERMFDEHFQKLPANSWKPFGNGKRSCIGRAFAWQEALMILALILQSFSLDLVDRGYTLKLKESLTIKPDNLWAYATPRPGRNVLHARLALQTNSTHPEGLMSLKHETVESQPATILYGSNTGTCEALAHRLAIEMSSKGRFVCKVQPMDEIEHRRLPRGQPVIIVTGSYDGRPPENARHFVKWLQSLEGNDLEGIQYAVFGCGLPGHHDWSTTFYKIPTLIDTIMAEHGGARLAPRGSADTAEDDPFVELESWSERRVWPGLEAAFDLVRHNSSDGTGKSTRITIRSPYTLRAAHETAVVHQVRVLTSAETTKKVHVELALPDTINYRPGDHLAILPLNSRQSVQRVLSLFQIGSDTILYITSSSATSLPTDTPISAHDLLSGYVELNQVATPTSLRSLAAKATDEKTAEYLEALATDRYTTEVRGNHLSLLDILESYSVPSIEIQHYIQMLPPLRPRQYTISSSPRLNRGQASLTVSVMERADIGGPRNCAGVASNYLASCTPGSILRVSLRHANPDFRLPDESCSHPIIMVAAGSGIAPFRAFVQERSVRQKEGIILPPAFLFFGCRRADLDDLYREELDAFEEQGVVTLFRAFSRAQSESHGCKYVQDLLWMERVRVKTLWGQDAKVFVCGSVRMNEGVKAIISKIVSPTPTEELARRYIAETFI

Type: cell-based, P. pastoris
Method: Precultures of P. pastoris transformants were prepared in buffered complex glycerol media (BMGY). BMGY contained: 10 g/l yeast extract, 20 g/l peptone, 3.4 g/l yeast nitrogen base, 10 g/l ammonium sulfate, 100 mM potassium phosphate (pH 6), 0.4 mg/l biotin and 1% (v/v) glycerol. Erlenmeyer flasks (500 ml) containing 50 ml BMGY media were inoculated with single colonies of 24 h old YPD-agar cultures of P. pastoris KM71 mut^s3/CYP505E3 and incubated at 30° C. and 225 rpm for 24 h. The cultures were harvested using pre-weighed centrifuge tubes at 3000 g for 5 min and stored on ice until further use.
The main cultures for expression were prepared in buffered complex methanol media (BMMY) containing 10 g/l yeast extract, 20 g/l peptone, 3.4 g/l yeast nitrogen base, 10 g/l ammonium sulfate, 100 mM potassium phosphate (pH 6), 0.4 mg/l biotin and 0.5 or 1% (v/v) methanol. Harvested cells from precultures were resuspended in BMMY media to final concentration of 1 g WC per 40 ml (appx. 25 g/l). The resuspended cultures (100 ml) were transferred to 500 ml Erlenmeyer flasks and incubated at 25° C. and 225 rpm for 24 h. The cultures were then harvested at 3000 g for 5 min using pre-weighed centrifuge tubes.
Different transformants of Pichia pastoris KM71 harbouring the CYP505 genes for SEQ ID Nos 1 to 7 and 9 to 12 were grown and harvested as described above. The harvested cells were resuspended to give 1 g wet cell weight in 40 ml MOPS buffer (200 mM, 100 mM glucose, 100 mM glycerol, pH 8) and 1 ml aliquots of these cell suspensions were transferred to 40 ml amber vials. Dodecane, 1-dodecanol and 1-tetradecanol were added neat to these cell suspensions to give final concentrations of 200 mM in the case of the alcohols and 1 M in the case of dodecane while in the case of dodecanoic acid 20 μl of a 500 mM stock solution (in DMSO) was added to give a final concentration of 10 mM. Transformants harbouring the CYP505 genes for SEQ ID Nos 1 to 4 were tested for the biotransformation of 1-dodecanol, 1-tetradecanol, dodecanoic acid, tetradecanoic acid and dodecane, while those harbouring the CYP505 genes for SEQ ID Nos 5 to 7 and 9 to 12 were only tested for the biotransformation of 1-dodecanol and dodecanoic acid. The biotransformations were incubated at 25° C. and 225 rpm for 24 h. Extractions were performed using ethyl acetate (500 μl×2). The extracts were analyzed using GC/MS.

Molecule	ω-7 hydroxylase activity C12FA	ω-7 hydroxylase activity C12ol
B1	−	−
B2	−	−
B3	−	−
B4	−	−
